In the domain aggregation screens of Martell et al. (2025):

Test: soluble fraction after stress (log2 fold change); higher = more stays soluble; pooled small domains, quantitative proteomics
Conditions: stress: 50 degC
Summary of the method: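 After stress at 50°C, the amount of each protein still soluble was measured. This was done on pooled custom libraries of small protein domains, using high-throughput quantitative proteomics. The figure given is a base-two log fold change and stands for aggregation propensity, with higher values meaning more protein stays in solution.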

| Sequence | soluble fraction (log2) |
| --- | --- |
| HMSGAERAAALLVALGPEVASEIMKFLDDESIQKLASEIAKIEVLSPQEKEDLIGQFLLELKKT | -0.214 |
| HMDFFTAAPEEDEIGKRIDVYIAEYKEELSRSRVQKLIENGLVTVNGKAVKSNYKLRKGDILEVEIPDPE | 0.0151 |
| HMTETFVLNLRQPIAAAPVLPGYRVARTDEQTLEVEVSKDQNLNEIFTALSALGVEVLSMRNK | -0.12 |
| HMTPTPQQNNILVGQTGTTLTRLAPMGKVRVGEVTAEAKTIDGYINPRQSVEVIGFENTVVIVRAV | 0.144 |
| HMQKLNIEEQIVYDIIFKNKELSANEIQIKSGIKTSILNALLINLEIKQYIKLKFGNFYEIK | 0.209 |
| HMHLNVYRDEDEAMLAFKDHLIGTHQPIRVRVEKALPDGTMGHKIVDTTIGRIVFNHNIPQD | -0.189 |
| HMRLARPLTPTEERVLRLLASDMSNAKIGEVLGIRLPTVKSHVSHIMQKLGVTSRAKARTAAQQLGI | -0.887 |
| HMQAITVNNEGKIFLNTIPVTLEELSSKLESLKSSTPEFPVVIRGDSGSQYQGIMDVLNVVGRLGITQIGL | -0.246 |
| HMGPGFVGGSVLSGGNRGEGDPVANAQVFITDMDDNVVAFTKTDAEGNFDMTNLAYGDYKMYVDILNK | -0.0166 |
| HMPELFLFNPDTASAATFQALGFSARQAGVLIHFREALGGRFGSVEQFSKSYVVDSATLERLRPYMVF | -3.63 |
| HMDSITEADLLRWAHALSGIARTGLGFTESRYERERYEEVLAVAADILAASSRSHDRAALVDEWLKMVGV | -1.8 |
| HMAPEPFIVQITASSLNVRKGPGTSYAVAQTVSKGQVFTIVQQQGGWGKLKSGAGWISLKYTAR | -1.36 |
| HMLVGKSVIMKTNESSSGMIAGKVNYWENIDGKIYLGINGKLYDIADVDTVLDNDYYDKLVN | -0.347 |
| HMDLYEILGVRRGAGGGEIRRAYRRLARRYHPDVNPGDREAQARYALITRAFETLNDPERRRAYDAGVP | -0.34 |
| HMALQDKYKQLVDTATASGVANLQVREQDGVLYIDGEAPSGSVKDQLWDIYGKIDPNFLSGDVVMNINV | -0.0683 |
| HMSEPQEISYSDFIEQVNRNEIRQVEFDGQHEYLTVIRKDTSRFKVIIPAPDPRLLDDLMEHDVEIVGKE | 0.0895 |
| HMGKVNGFEITVIEGKNVVGSITPRQAIAKNSDGVIQLRGEQSFSATDQVLINELAFYIKSNNLKA | -0.949 |
| HMLAEEDRRRAERPGLDGNAVMVHLGIGPGRHVGEALAFLLEVRRSEGDLAVAELKSRIDAWWADR | -2.59 |
| HMSKASLFFLFNHKDELYIVDNNHVQDVPKPRELIRRFSTIEQIREHALHLGLPIANDTARE | -0.723 |

| Sequence | soluble fraction (log2) |
| --- | --- |
| HMSSVEQAILETLSKEHSHLTSLQVFEEIRGRLPAVNQSTVYRALERLVEQGVVSVSDMGTHAAVYE | -0.177 |
| HMLVNNSTIETVIDFANVKFGMELTKDQVSEQLRNLSFSQTLKLINSMKADDNDAFSEIIDL | -0.672 |
| HMTGSLRVTSSPSGAEIYVDEIYRGYTPLTIGSLSTGRHEVRLHLSGYQDYTRTVEIESGSQSSFSVTLT | 0.0152 |
| HMSYTDIILKMSNVNFLTKVNFTNSEKNKNIKNGNFLIKKGKNRITAAFDYKDNELVISKSNLRNTFL | -0.381 |
| HMSAIEIDAEKILNYLTDRGGKMPYGDTTAPEVIKDKFNISKAAFKRALGFLLRSNKIEQIDGWTYI | -0.317 |
| HMNYKLESYLKKVDDQLNFIPVSDKADILSELKNTFYERLLNGQTEEEILDEMESPRELALSYMSES | 0.0578 |
| HMKVDRLISIVLVLLDKNRISAQELADMFEVSLRTIYRDIDAIELAGIPIRSTSGVGGGFEIMPNY | -0.577 |
| HMSKTKDVLVQLMAERGLTQSDIARALSVRPQAVQQWVSGKTRPTGKNLEALAEFLQLPPAVIVHGP | -0.00766 |
| HMKNELNSKLIISIKEALPPQIKVATYLMDLLSLGREAVYRRIRGDVSFDLEELSIISKALNISIDDVL | -4.15 |
| HMPEPPRVGETLAALRQDRALSLDELSRQAGVSKSMLSQIERNQANPTVAVVWRLANALGVPMAELLGA | -0.108 |
| HMVTYELTEDEKFIVSLLEKENSQPIGALKDKSALSGKKWDAAMKGLAKHGLTKVVVDGDNKLVVL | -0.00965 |
| HMDDLIIQIELKQEGLEITGLKVLLKEDSVIDEQVKQTIRRKIERFLVNLYGNPNVYVSKFSMGI | -0.325 |
| HMIGITTANLNVRTGTDTNYTSIAILPKGTKVNILEENVKPGWYKIQFDEIYAFVSSKYIKIQS | -1.12 |
| HMEMKMGHIISKLRYESGYSQVELAEKIGITKGAVGMYETDKRKPDYDTLIKLADLFNVSTDYLLS | 0.0501 |
| HMTSRIHDYWTSPGQPGYAKIGWGTAGDFRRAKALIGEKIAANSPEDMRYLNQIIAQWHFDALGYWPGDH | -2.49 |
| HMVISLREINLIGVYGRPNARRALVRLSNGRYVRVEVGSDLDGGKVTAIGDEALNFVKRGRTYAIQLPA | -1.55 |
| HMAAINPSALREPATPPEQLSAGDSVLHPRFGRGEILELQQQGGDPRAIVQFINEPKPRTLVLRYAQLRK | -0.049 |
| HMDEWDDGDKPKLKITLYADDDYYFASGFSKSSVSLSGSDGTVTSVSRSSSDTLIVYVTLDALD | -0.0264 |
| HMNQSEMIGSRLKEERLQQKLTLKQLSEKVGLSIGYLSQVERGYGTLSLSALKKLSSALGLEMSTFFD | -0.992 |
